B1: XE169, amino acids 1239-1439, prey clone fused to the Gal4 activation domain (other, Saccharomyces cerevisiae;human, UniProt P04386 768-881, looked up, not shown: small tags and cut ends)
chain: ANFNQSGNIADSSLSFTFTNSSNGPNLITTQTNSQALSQPIASSNVHDNFMNNEITASKIDDGNNSKPLSPGWTDQTAYNAFGITTGMFNTTTMDDVYNYLFDDEDTPPNPKKEDTKFLCPLCMRSRRPRLETILALLVALQRLPVRLPEGEALQCLTERAISWQGRARQALASEDVTALLGRLAELRQRLQAEPRPEEPPNYPAAPASDPLREGSGKDMPKVQGLLENGDSVTSPEKVAPEEGSGLELLSSLLPQLTGPVLELPEATRAPLEELMMEGDLLEVTLDENHSIWQLLQAGQPPDLERIRTLLE
notes: Prey from a human brain cDNA library in pACT2; also called SMCX
B2: PN12361, amino acids 1-223, prey clone fused to the Gal4 activation domain (other, Saccharomyces cerevisiae, not shown: small tags and cut ends)
chain: ANFNQSGNIADSSLSFTFTNSSNGPNLITTQTNSQALSQPIASSNVHDNFMNNEITASKIDDGNNSKPLSPGWTDQTAYNAFGITTGMFNTTTMDDVYNYLFDDEDTPPNPKKEMDALVEDDICILNHEKAHKRDTVTPVSIYSGDESVASHFALVTAYEDIKKRLKDSEKENSLLKKRIRFLEEKLIARFEEETSSVGREQVNKAYHAYREVCIDRDNLKSKLDKMNKDNSESLKVLNEQLQSKEVELLQLRTEVETQQVMRNLNPPSSNWEVEKLSCDLKIHGLEQELELMRKECSDLKIELQKAKQTDPYQEDNLKSRDLQKLSISSDNMQHAY
notes: range 768-881; Prey from a human brain cDNA library in pACT2; also called novel AZ2-like protein
B3: KIAA0619, amino acids 589-828, prey clone fused to the Gal4 activation domain (other, Saccharomyces cerevisiae;human, UniProt P04386 768-881, looked up, not shown: small tags and cut ends)
chain: ANFNQSGNIADSSLSFTFTNSSNGPNLITTQTNSQALSQPIASSNVHDNFMNNEITASKIDDGNNSKPLSPGWTDQTAYNAFGITTGMFNTTTMDDVYNYLFDDEDTPPNPKKESKQIQQLESNNRDLQDKNCLLETAKLKLEKEFINLQSALESERRDRTHGSEIINDLQGRICGLEEDLKNGKILLAKVELEKRQLQERFTDLEKEKSNMEIDMTYQLKVIQQSLEQEEAEHKATKARLADKNKIYESIEEAKSEAMKEMEKKLLEERTLKQKVENLLLEAEKRCSLLDCDLKQSQQKINELLKQKDVLNEDVRNLTLKIEQETQKRCLTQNDLKMQTQQVNTLKMSEKQLK
notes: Prey from a human brain cDNA library in pACT2; residues counted on GenBank AB014519; also called ROCK2
B4: Beta catenin (B-CAT), amino acids 487-668, prey clone fused to the Gal4 activation domain (other, Saccharomyces cerevisiae;human, UniProt P04386 768-881, looked up, not shown: small tags and cut ends)
chain: ANFNQSGNIADSSLSFTFTNSSNGPNLITTQTNSQALSQPIASSNVHDNFMNNEITASKIDDGNNSKPLSPGWTDQTAYNAFGITTGMFNTTTMDDVYNYLFDDEDTPPNPKKELHYGLPVVVKLLHPPSHWPLIKATVGLIRNLALCPANHAPLREQGAIPRLVQLLVRAHQDTQRRTSMGGTQQQFVEGVRMEEIVEGCTGALHILARDVHNRIVIRGLNTIPLFVQLLYSPIENIQRVAAGVLCELAQDKEAAEAIEAEGATAPLTELLHSRNEGVATYAAAVLFRMSEDKPQ
notes: Prey from a human brain cDNA library in pACT2; residues counted on GenBank Z19054

Assays:
[1] = target: T1, Nuclear receptor coactivator 2 (NCOA2), amino acids 366-624, bait fused to the Gal4 DNA binding domain (Saccharomyces cerevisiae, UniProt P04386 1-147; Q15596 366-624); experiment: yeast two-hybrid; bait NCOA2 aa 366-624 (Gal4 DBD), prey from human brain library (Gal4 AD)
T1 construct: Bait expressed in yeast from vector pGBTQ as a C-terminal fusion to Gal4 DBD; Residues are counted on GenBank X97674; also called GRIP 1
Text: (§1) In these yeast cells, the bait is produced as a C-terminal fusion protein with the DNA binding domain of the transcription factor Gal4 (amino acids 1 to 147). A total human brain (person) cDNA library cloned into the yeast expression vector pACT2 was purchased from Clontech (human brain […] cDNA, cat. #HL4004AH), transformed into the yeast strain J692 (genotype of this strain: Mat a, ade2, his3, leu2, trp1, URA3::GAL1-lacZ LYS2::GAL1-HIS3 gal4del gal80del cyhR2), and selected for the ability to drive leucine synthesis. In these yeast cells, each cDNA is expressed as a fusion protein with the transcription activation domain of the transcription factor Gal4 (amino acids 768 to 881) and a 9 amino acid hemagglutinin epitope tag. J693 cells (Mat α type) expressing the bait were then mated with J692 cells (Mat a type) expressing proteins from the brain library. The resulting diploid yeast cells expressing proteins interacting with the bait protein were selected for the ability to synthesize tryptophan, leucine, histidine, and β-galactosidase. DNA was prepared from each clone, transformed by electroporation into E. coli strain KC8 (Clontech KC8 electrocompetent cells, cat. #C2023-1), and the cells were selected on ampicillin-containing plates in the absence of either tryptophane (selection for the bait plasmid) or leucine (selection for the brain library plasmid). […]

[2] = target: T1, Nuclear receptor coactivator 2 (NCOA2), …; experiment: yeast two-hybrid screen with NCOA2 as bait
Text: as §1

[3] = target: T1, Nuclear receptor coactivator 2 (NCOA2), …; experiment: yeast two-hybrid; Gal4 DBD bait, prey from human brain library (Gal4 AD)
Text: as §1, with “A” for “In these yeast cells, the bait is produced as a C-terminal fusion protein with the DNA binding domain of the transcription factor Gal4 (amino acids 1 to 147). A”, “plasmid). DNA for both plasmids was prepared and sequenced by di-deoxynucleotide chain termination method.” for “plasmid).”

Binder | binding result [3] | also measured
B1 |  | binding result [1]: binds
B2 |  | binding result [2]: binds
B3 | binds | 
B4 | binds | 

Source: patent publication US20030054515A1 (MYRIAD GENETICS, published 2003)
